Measured values published in article PMC11249646, “Small-Molecule Disruptors of the Interaction between Calcium- and Integrin-Binding Protein 1 and Integrin αIIbβ3 as Novel Antiplatelet Agents” (ACS Pharmacology & Translational Science, 2024).
Where “and” joins values, the source holds several entries; their conditions need not be identical. Equal entries are not always repeated. Where two headings read alike, the source gives them in different places. Values belong to the molecule of their own block, whether it stands above or below them. Primed or numbered codes have the meaning given here. Where no end group is shown, it is not given here. FITC″ = fluorescein isothiocyanate label; FITC′ = not defined here

T1: CIB1 and αIIb interaction (GST-CIB1 : F-αIIb peptide) (Homo sapiens, UniProt Q99828)
T1 construct: made in house; host or cells: BL-21 plus RIL cells (E. coli)
T1 sequence (Q99828 1-191): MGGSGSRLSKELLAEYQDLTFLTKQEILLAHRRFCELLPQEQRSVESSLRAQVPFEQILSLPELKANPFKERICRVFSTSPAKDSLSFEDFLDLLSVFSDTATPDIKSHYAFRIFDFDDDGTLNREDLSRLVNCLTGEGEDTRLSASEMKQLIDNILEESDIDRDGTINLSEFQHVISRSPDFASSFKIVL

T2: F-scrambled αIIb-peptide (FITC-labeled scrambled control peptide)
T2 construct: scrambled order of the αIIb peptide's residues; also called labeled scrambled-peptide; scrambled peptide; source: synthetic peptide (custom synthesized, Peptide 2.0, purity 95.37%)
T2 peptide: Ac-RKLFVKVMFWRLNGAK-{FITC″}

T3: FITC-labeled αIIb peptide from the cytoplasmic domain of integrin αIIb
T3 construct: integrin αIIb, stretch at the start of the cytoplasmic domain; last printed residue of the peptide; The C-terminal K probably carries the FITC (surmised); also called F-αIIb; F-αIIb peptide; source: synthetic peptide (custom synthesized, Peptide 2.0, purity 95.83%)
T3 peptide: Ac-LVLAMWKVGFFKRNRK-{FITC′}

B1: GST-tagged recombinant CIB1 (calcium- and integrin-binding protein 1) (natural protein)
chain: SKELLAEYQDLTFLTKQEILLAHRRFCELLPQEQRSVESSLRAQVPFEQILSLPELKANPFKERICRVFSTSPAKDSLSFEDFLDLLSVFSDTATPDIKSHYAFRIFDFDDDGTLNREDLSRLVNCLTGEGEDTRLSASEMKQLIDNILEESDIDRDGTINLSEFQHVISRSPDFASSFKIVL
notes: Printed molecular weight of GST-CIB1 is 48 kDa against 26 kDa for GST alone, which would fit whole CIB1 (surmised); Vector family pGEX-4T is named for the empty vector; also called GST-CIB1; CIB1-GST
B2: unlabeled αIIb peptide (peptide)
peptide: Ac-LVLAMWKVGFFKRNRK
notes: integrin αIIb, stretch at the start of the cytoplasmic domain; last printed residue of the peptide; also called unlabeled peptide; source: synthetic peptide (custom synthesized, Peptide 2.0, purity >95.00%)

Columns and labels:
[1] = target: T1, CIB1 and αIIb interaction (GST-CIB1 : F-αIIb peptide); test: FP assay, 384-well format (screen); format: binding; details: 384-well; F-αIIb 50 nM, GST-CIB1 1 or 2 μM; RT 1 h; read-out: IC50
[2] = target: T1, CIB1 and αIIb interaction (GST-CIB1 : F-αIIb peptide); test: FP assay, 96-well format (assay development); format: binding; details: GST-CIB1 1 μM, F-αIIb peptide 100 nM, pre-incubated 1 h, read-out: half maximal inhibitory concentration (IC50)
[3] = target: T2, F-scrambled αIIb-peptide (FITC-labeled …); details: both partners purified
[4] = target: T3, FITC-labeled αIIb peptide from the …; details: both partners purified
[5] = target: B1; details: both partners purified
[6] = target: B1; test: fluorescence polarisation; competition, 384-well plate; GST-CIB1 1 or 2 μM, F-αIIb 50 nM, unlabeled αIIb peptide 16-point 1:2 dilution (3.05 nM to 100 μM), points >25 μM excluded; room temperature, 1 h; details: both partners purified

IC50 [1]: ~2.7 µM and ~3 µM
IC50 [2]: 11.2 µM
Molecule: Ac-LVLAMWKVGFFKRNRK [unlabeled αIIb peptide, reference compound]

Molecule: B1
EC50 [3]: 1.6 µM
EC50 [4]: ~0.2 µM

Molecule: B2
IC50 [5]: ~12 µM and 8.6 µM
IC50 [6]: ~2.7 µM
